The supplement of paper PMC10724198

Tests used:
Saccharomyces cerevisiae [1] = assay: protein stability index of tFT-peptide fusion in wild type (PSI (0-1 scale)); higher = more stable (slower turnover); conditions: genetic background: wild type
Procedure: (§1)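 MPS profiling in S. cerevisiae of two library types built from selected 12-aa C-degron peptides (IN1, IN2, LN1, LN3, VN2, R1-R5, W1-W3, Atg1 and Rpa12 C-termini): saturation mutagenesis libraries and C-terminal +1 capping libraries (13 aa). Each peptide is fused to the C-terminus of a sfGFP-mCherry timer, after a GGGS linker. Cells are FACS-sorted into 8 mCherry/sfGFP bins and sequenced. PSI runs from 0 (unstable) to 1 (stable), measured once in wild type and in the das1Δ or doa10Δ background.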

Saccharomyces cerevisiae [2] = assay: protein stability index of tFT-peptide fusion in deletion strain of DAS1 (PSI (0-1 scale)); higher = more stable (slower turnover)
Procedure: as §1
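Wherever protein stability index of tFT-peptide fusion in deletion strain of DAS1 is given: PSI is a weighted mean of each variant's read distribution over the sorted stability bins, computed only for variants having over 10 reads in total.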
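Wherever protein stability index of tFT-peptide fusion in wild type is given: PSI derived as read-weighted mean over the 8 sorting bins, only variants exceeding 10 total reads kept, mCherry placed adjacent to the peptide and sfGFP distal.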

Row | Sequence | protein stability index (Saccharomyces cerevisiae [1]) | protein stability index (Saccharomyces cerevisiae [2])
1 | ARWRVGTWRGAS | 0.535 | 0.687
2 | ARWRVKLWRGAS | 0.357 | 0.684
3 | ARWRVLLWRGAS | 0.4 | 0.628
4 | ASLAASFWRVVG | 0.135 | 0.695
5 | ASWRVGLWRGAS | 0.516 | 0.703
6 | AVVYLSCVACIN | 0.0207 | 0.038
7 | CKSCGYKFRTNN | 0.276 | 0.697
8 | CTSCCYKFRTNN | 0.211 | 0.661
9 | CTSCEYKFRTNN | 0.457 | 0.684
10 | CTSCGQKFRTNN | 0.448 | 0.686
11 | CTSCGYEFRTNN | 0.64 | 0.675
12 | CTSCGYHFRTNN | 0.258 | 0.695
13 | CTSCGYKFITNN | 0.325 | 0.709
14 | CTSCGYKFRGNN | 0.682 | 0.686
15 | CTSCGYKFRHNN | 0.555 | 0.705
16 | CTSCGYKFRKNN | 0.23 | 0.692
17 | CTSCGYKFRTNNI | 0.716 | 0.699
18 | CTSCGYKFRTNNP | 0.698 | 0.69
19 | CTSCGYKFRTNNR | 0.707 | 0.705
20 | CTSCGYKFRTNNY | 0.677 | 0.704
21 | CTSCGYKFRTPN | 0.689 | 0.71
22 | CTSCGYKFRTRN | 0.534 | 0.683
23 | CTSCGYKFRVNN | 0.282 | 0.687
24 | CTSCGYKFRWNN | 0.49 | 0.737
25 | CTSCGYKFRYNN | 0.369 | 0.702

Row | Sequence | protein stability index (Saccharomyces cerevisiae [1]) | protein stability index (Saccharomyces cerevisiae [2])
26 | CTSCGYKFYTNN | 0.374 | 0.701
27 | CTSCGYKHRTNN | 0.582 | 0.687
28 | CTSCGYKWRTNN | 0.153 | 0.659
29 | CTSCGYVFRTNN | 0.196 | 0.698
30 | CTSCNYKFRTNN | 0.407 | 0.681
31 | CTSCTYKFRTNN | 0.238 | 0.648
32 | CTSVGYKFRTNN | 0.176 | 0.682
33 | CTVCGYKFRTNN | 0.28 | 0.704
34 | CVSCGYKFRTNN | 0.243 | 0.705
35 | CWSCGYKFRTNN | 0.167 | 0.714
36 | DSLAASFWRVVG | 0.135 | 0.697
37 | ELIQPLPVQFLN | 0.0675 | 0.612
38 | EVVYLSCVACIN | 0.0159 | 0.0291
39 | FCMRWTFRYWVN | 0.0388 | 0.481
40 | FDKRNHLIKLLN | 0.131 | 0.589
41 | FHMRWTFRYWVN | 0.0327 | 0.466
42 | FLIQPLPVQFLN | 0.0527 | 0.582
43 | FSIRWTFRYWVN | 0.0207 | 0.335
44 | FSMRDTFRYWVN | 0.0684 | 0.833
45 | FSMRVTFRYWVN | 0.0315 | 0.352
46 | FSMRWAFRYWVN | 0.115 | 0.58
47 | FSMRWLFRYWVN | 0.0905 | 0.573
48 | FSMRWSFRYWVN | 0.0724 | 0.544
49 | FSMRWTDRYWVN | 0.0929 | 0.568
